In patent US20100266695A1 (University of California, published 2010):
Where no end group is shown, it is not given here.

Biological target: αvβ3 integrin on HeLa cells (human, UniProt P06756 31-1048; P05106 27-788)
Assay: cell-based or functional assay

Chain of αvβ3 integrin on HeLa cells (P06756 31-1048, chain 1 of 2): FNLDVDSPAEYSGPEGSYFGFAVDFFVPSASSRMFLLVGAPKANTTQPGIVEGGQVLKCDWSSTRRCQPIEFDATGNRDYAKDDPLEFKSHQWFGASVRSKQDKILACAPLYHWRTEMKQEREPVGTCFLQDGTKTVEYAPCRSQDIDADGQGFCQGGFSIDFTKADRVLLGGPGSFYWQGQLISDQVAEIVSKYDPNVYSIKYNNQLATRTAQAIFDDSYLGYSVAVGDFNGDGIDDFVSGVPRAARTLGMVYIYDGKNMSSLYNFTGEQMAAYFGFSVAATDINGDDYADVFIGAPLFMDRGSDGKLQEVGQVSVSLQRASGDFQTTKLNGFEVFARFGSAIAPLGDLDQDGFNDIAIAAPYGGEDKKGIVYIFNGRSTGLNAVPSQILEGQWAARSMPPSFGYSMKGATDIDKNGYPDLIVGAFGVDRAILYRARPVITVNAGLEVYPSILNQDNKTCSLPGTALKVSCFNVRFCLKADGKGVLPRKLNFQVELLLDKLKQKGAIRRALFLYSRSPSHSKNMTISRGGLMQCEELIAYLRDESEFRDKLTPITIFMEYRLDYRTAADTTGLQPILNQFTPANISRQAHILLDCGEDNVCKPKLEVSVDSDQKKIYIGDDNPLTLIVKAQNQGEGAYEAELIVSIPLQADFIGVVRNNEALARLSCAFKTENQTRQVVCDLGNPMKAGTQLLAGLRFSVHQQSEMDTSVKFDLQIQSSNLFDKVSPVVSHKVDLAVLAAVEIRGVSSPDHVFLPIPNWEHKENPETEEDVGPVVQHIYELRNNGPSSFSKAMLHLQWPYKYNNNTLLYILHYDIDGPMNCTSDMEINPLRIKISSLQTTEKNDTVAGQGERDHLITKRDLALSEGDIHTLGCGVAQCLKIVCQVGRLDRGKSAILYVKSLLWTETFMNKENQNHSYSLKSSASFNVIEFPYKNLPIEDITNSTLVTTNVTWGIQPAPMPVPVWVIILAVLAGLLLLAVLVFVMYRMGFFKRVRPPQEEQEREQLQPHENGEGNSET
Chain of αvβ3 integrin on HeLa cells (P05106 27-788, chain 2 of 2): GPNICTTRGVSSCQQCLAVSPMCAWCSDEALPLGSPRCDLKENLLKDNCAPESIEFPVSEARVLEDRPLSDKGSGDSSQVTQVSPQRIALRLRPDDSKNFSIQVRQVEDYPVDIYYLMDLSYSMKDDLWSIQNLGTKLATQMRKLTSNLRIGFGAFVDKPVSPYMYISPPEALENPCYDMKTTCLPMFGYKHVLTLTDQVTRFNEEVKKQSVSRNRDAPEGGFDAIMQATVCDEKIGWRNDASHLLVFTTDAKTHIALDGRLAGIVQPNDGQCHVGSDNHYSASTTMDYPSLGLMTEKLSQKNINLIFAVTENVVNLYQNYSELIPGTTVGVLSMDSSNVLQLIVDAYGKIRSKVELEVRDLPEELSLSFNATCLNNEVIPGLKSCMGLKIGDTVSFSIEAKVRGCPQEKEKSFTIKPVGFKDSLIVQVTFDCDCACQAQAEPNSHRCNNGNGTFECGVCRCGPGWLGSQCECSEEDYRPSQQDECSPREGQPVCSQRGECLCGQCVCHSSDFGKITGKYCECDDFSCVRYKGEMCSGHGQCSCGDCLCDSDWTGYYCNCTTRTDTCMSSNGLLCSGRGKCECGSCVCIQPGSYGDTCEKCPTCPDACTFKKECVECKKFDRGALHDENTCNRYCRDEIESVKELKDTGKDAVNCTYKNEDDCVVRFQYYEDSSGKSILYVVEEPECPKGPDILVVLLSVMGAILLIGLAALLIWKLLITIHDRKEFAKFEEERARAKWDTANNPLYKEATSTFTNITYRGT

B1: Au-Cap-RGD nanoparticles (RGD nanoclusters): 5 nm gold nanoparticles modified with a mixture of Cap and Cap-RGD peptides (peptide)
peptide 1: Ac-CCVVVTGRGDSPSSK-OH
peptide 2: CCVVVT-OH
modifications: also: peptides attached to 5 nm gold nanoparticle via thiol/gold, mixture of Cap and Cap-RGD
- IC50 level of cell adhesion inhibition, as equivalent RGD peptide (anti-adhesion assay, HeLa cells on vitronectin): 0.1 µM

B2: free RGD peptide (Ac-GCGYGRGDSPSSK-NH2) (peptide)
peptide: Ac-GCGYGRGDSPSSK-NH2
- IC50 concentration at which 50% of cell adhesion is inhibited (anti-adhesion assay, HeLa cells on vitronectin): ~100 µM

B3: DNA/PEI-Au-Cap-RGD-ASA polyplex: DNA/poly(ethylene imine) polyplex covalently modified with Au-Cap-RGD-ASA nanoparticles (other)
peptide 1: Ac-CCVVVTGRGDSPSSK-OH
peptide 2: CCVVVT
modifications: also: peptides on gold nanoparticle via thiol/gold, azidosalicylic acid added, residue not given here, crosslinked to PEI, bound to DNA/PEI polyplex
- Integrin Sensitivity Factor (ISF), ratio of the transfection level achieved with high and low αvβ3 density cells: 60
- luciferase expression in low αvβ3 density HeLa cells, against unmodified polyplexes: 5.4 fold
- transfection efficiency in high αvβ3 density HeLa cells, against unmodified polyplexes: 35 fold
- transfection efficiency, HeLahigh against HeLalow: 7 fold
